Experimental data published in patent US9938503B2, “Differentiation of human iPS cells to human alveolar type II via definitive endoderm” (YALE UNIVERSITY, priority 2012, dated 2018).

Assays:
[1] = test system: iPSC-derived DE cells; experiment: Extracellular matrix protein effects on DE cell adhesion and differentiation; format: cell-based, human; details: ECM-coated plates, media with NOGGIN/SB-431542
Protocol: (§1) DE generated by exposure to activin A were trypsinized, reseeded at a ratio of 1:1-2 on human ECM protein-coated plates and differentiated to anterior foregut endoderm with IMDM+5% FBS, 2 mM L-glutamine, 1 mM nonessential amino acids, 1% antibiotic-antimycotic supplemented with 200 ng/ml NOGGIN and […] SB-431542 for 2 days (Longmire T A, et al. 2012. Cell Stem Cell 10(4):398-411, Green M D, et al. 2011. Nat Biotechnol 29(3):267-272).
Total RNA was extracted using the RNeasy Mini Kit from Qiagen, following the manufacturer's instructions. First-strand complementary DNA (cDNA) was synthesized with random hexamers as primers, using SuperScript First-Strand Synthesis System according to manufacturer's protocol (Invitrogen). Each sample was run in triplicate with iQ™ SYBR Green Supermix (Bio-Rad). PCR conditions included an initial denaturation step of 4 min at 95° C., followed by 40 cycles of PCR consisting of 15s at 95° C., 30 s at 60° C., and 30 s at 72° C. Average threshold cycle (Ct) values from the triplicate PCR reactions for a gene of interest (GOI) were normalized against average GAPDH Ct values from the same cDNA sample. Fold change of GOI transcript levels between sample A and sample B equals 2^−ΔΔCt, where ΔCt=Ct(GOI)−Ct(GAPDH), and ΔΔCt=ΔCt(A)−ΔCt(B). […]

[2] = test system: iPSC-AETII cells; experiment: Differentiation of iPSC-derived AETII cells to AETI cells with IWR-1; format: cell-based, human
Protocol: Differentiated cells at day 22 were then maintained in DMEM medium with 10% FBS, 2 mM L-glutamine, 1 mM nonessential amino acids, 1% antibiotic-antimycotic and […] IWR-1 for 7 days.
(§2) For flow cytometry, cells were dissociated into single-cell suspensions by incubation with 0.25% trypsin for 2 min, and fixed (Fixation/Permeabilization kit, BD Biosciences). After blocking for 30 min on ice, the cells were incubated with primary antibody in blocking solution for 30 min on ice. The cells were resuspended in 350 μl of Perm/Wash buffer after incubation with conjugated secondaries for 30 min on ice, washed twice, and analyzed by flow cytometry. See Table 1 for antibody information.
Total RNA was extracted using the RNeasy Mini Kit from Qiagen, following the manufacturer's instructions. First-strand complementary DNA (cDNA) was synthesized with random hexamers as primers, using SuperScript First-Strand Synthesis System according to manufacturer's protocol (Invitrogen). Each sample was run in triplicate with iQ™ SYBR Green Supermix (Bio-Rad). PCR conditions included an initial denaturation step of 4 min at 95° C., followed by 40 cycles of PCR consisting of 15s at 95° C., 30 s at 60° C., and 30 s at 72° C. Average threshold cycle (Ct) values from the triplicate PCR reactions for a gene of interest (GOI) were normalized against average GAPDH Ct values from the same cDNA sample. Fold change of GOI transcript levels between sample A and sample B equals 2^−ΔΔCt, where ΔCt=Ct(GOI)−Ct(GAPDH), and ΔΔCt=ΔCt(A)−ΔCt(B).

[3] = test system: human iPS cells (C1 and C2 clones); experiment: Differentiation of iPS cells to definitive endoderm with activin A, flow cytometry; format: cell-based; details: for endodermal cells based on dual expression of SOX17 and FOXA2: day 6
Protocol: Human iPSCs were differentiated to alveolar epithelium in a directed differentiation protocol via definitive endoderm (DE) and anterior foregut endoderm (AFE). iPS cells were differentiated towards definitive endoderm under conditions described previously (Duan Y, et al. 2010. Stem Cells 28(4):674-686, Kubo A, et al. 2004. Development. 131(7):1651-1662). Briefly, h-iPSC were cultured in RPMI 1640 medium supplemented with 100 ng/ml activin A, 2 mM L-glutamine and 1% antibiotic-antimycotic for 48 hours; 1xB27 supplement, 0.5 mM sodium butyrate and 0.1% FBS were added into the same medium and the cells were cultured for another 4 days, with daily medium changes (D'Amour K A, et al. 2005. Nat Biotechnol 23(12):1534-1541).
as §2

[4] = test system: iPSC-derived definitive endoderm cells; experiment: Differentiation of definitive endoderm to anterior foregut endoderm with NOGGIN/SB-431542, flow cytometry; format: cell-based, human
Protocol: as §1, §2

[5] = 100 mM IWR-1 for 7 days from day 22, flow cytometry, C1 clone
[6] = C1 clone, day 6, 100 ng/ml activin A, flow cytometry
[7] = C2 clone, day 6, 100 ng/ml activin A, flow cytometry
[8] = continuous activin A from day 6 to day 8 without NOGGIN/SB-431542

Fibronectin
DE cell attachment [1]: attach well

laminin
DE cell attachment [1]: attach well

O=C(Nc1cccc2cccnc12)c1ccc(N2C(=O)[C@@H]3[C@H](C2=O)[C@@H]2C=C[C@H]3C2)cc1 [IWR-1]
cells expressing T1α [2, 5]: ≤ 88% | cells positive for aquaporin-5 (AQ5) [2, 5]: up to 92% | cells positive for caveolin-1 [2, 5]: ≤ 98% | AETI cells positive for the type I markers T1α and caveolin-1 ([2]; AETII exposed to Wnt/β-catenin inhibitor): more than 90% | AETI markers AQ5, T1α and caveolin-1 by immunostaining ([2]; IWR-1 treated versus untreated AETII): significant increase | AETII cell marker SPC ([2]; after IWR-1, flow cytometry): decreased significantly | expression of type I cell markers by quantitative RT-PCR ([2]; iPSC-AETII cells exposed to IWR-1 versus freshly isolated human primary alveolar type I cells): comparable to expression levels of freshly isolated human primary alveolar type I cells

B1: activin A: soluble cytokine activating the nodal receptor, used at 100 ng/ml to induce definitive endoderm (protein, UniProt P08476 311-426, looked up)
Inhibin beta A chain: GLECDGKVNICCKKQFFVSFKDIGWNDWIIAPSGYHANYCEGECPSHIAGTSGSSLSFHSTVINHYRMRGHSPFANLKSCCVPTKLRPMSMLYYDDGQNIIKKDIQNMIVEECGCS
modifications: Inhibin beta A chain
endodermal cells based on dual expression of SOX17 and FOXA2 ([3]; C1 clone): more than 85% | percentage of cells expressing CXCR4 [3, 6]: 92.71±4.0% | percentage of cells expressing FOXA2 [3, 6]: 87.66±1.2% | endodermal cells based on dual expression of SOX17 and FOXA2 ([3]; C2 clone): > 89% | percentage of cells expressing CXCR4 [3, 7]: 87.23±2.0% | percentage of cells expressing FOXA2 [3, 7]: 83.54±1.8% | percentage of cells expressing SOX17 [3, 7]: 91.42±3.0% | cells positive for NKX2.1 ([4]; activin A induced cells without NOGGIN/SB-431542, day 13): < 1% | FOXA2+/SOX2+ cells [4, 8]: rare | NKX2.1+ cells [4, 8]: few
